In the nanobody polyreactivity screen of Harvey et al. (2022):

Assay: yeast display, Sf9 membrane polyspecificity reagent, FACS + sequencing; frameworks hold sequencing errors
Procedure, shortened: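 Nanobodies from a synthetic yeast display library (Saccharomyces cerevisiae BJ5465), induced 36–48 hours with galactose, were stained 1 hour at 4 °C with 10% biotinylated, detergent-solubilized Sf9 membrane reagent, enriched on streptavidin microbeads, then FACS-sorted. Anti-HA (expression) and streptavidin (reagent binding) fluorescence set low and high (top ~1%) gates. Polyreactivity labels come from the gate of origin. Genes were colony-PCR amplified, MiSeq 2 × 250 sequenced and filtered by CDR length.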

Row | Sequence | polyreactivity (PSR sort gate)
1 | QVQLVESGVGLVQAGGSLSLSCAASGFTFHDYAMGWYSQAPGKERELVAAIDWSGGRTYYADSVKGRFTISRDNAKNTVYLQMNSLKPEDTAVYYCAAVRYSRLYWYRLDYGGQGTQVTVSS | low polyreactivity
2 | QVQLVESGGGLVQAGGSLRLSCAASGRTFGRYAMGWYRQAPGKERELVAAISWTGGRTYYADSVKGRFTISRDNAKNTVYLQMNRLKPEDTAVYYCAALYDRNPAASRGYDSWGQGTQVTVSS | high polyreactivity
3 | QVQLVESGGGLVQAGGSLRLSCAASGSTFPYYTMGWYRQAPGKERELVAAITWRGGRTYYADSVKGRFTISRDNAKNTVYLQMNSLKPEDTAVYYCAAKQKHTQQTGWKYEYWGQGTQVTVSS | high polyreactivity
4 | QVQLVESGGVLVQAGGSLRLSCADSGSTFFFYAMGWYRHAPGKERELLAAISSTGRTYYADSVKGRFTISRDNAKNSVYLQMNSLKPEETAVYYCAARIYSGYSYWGQGTQVTVSS | high polyreactivity
5 | QVQLVESGGGLVQAGGSLRLSCAASGSIFSYYAMGWYRQAPGKERELVAAISSGVSSTYYADSVKGRFTISRDNAKNTVYLQMNSLKPEYTAVYYCNADRPYRLNEYWGQGTQVTVSS | high polyreactivity
6 | QVQLVESGGGLVQAGGSLRLSCAASGSIFSSYAMGWYRQAPGKERELVAVITSGDSTNYADSVKGRFTISRDNAKNTVYLQMNSLKPEDTAVYYCAAGTQAHAYVVRPIEMDYWGQGTQVTVSS | low polyreactivity
7 | QVQLVESVGGLVQAGGSLRLSCAASGRTFVLNTMGWYRQAPGKERELVAAISKSGGSTYYADSVKGRFTISRDNAKNTVYLQMNSLKPEDTAVYYCAARTRQLEYNSWGEGTQVTVSS | high polyreactivity
8 | QVQLVESGGGLVQAGGSLRLSCAASGIIFYRYAMGWYRQAPGKEREFVAAISWSGGSTTYADSVKGRFTISRDNAKNTVYLQMNSLKPEDTAVYYCNADRIYWSLWGPAYDYWGQGTQVTVSS | high polyreactivity
9 | QVQLVESGGGLVQAVGSLRLSCAASGRIFDTYVMGWYRQAPGKEREMVAAISGSGGSTYYADSVKGRFTISRDNAKNTVYLQMNSLKPEDTAVYYCSAARRYYAYRYDYWGQGTQVTVSS | high polyreactivity
10 | QLQHVESRRGLVQAGGSLRLSCAASGLTFVGYAMGWYRQAPGKERELGAAISGVGTTNYADSVKGRFTISRDNAKNTVYFQMNSLKPEDSAVYYCAKAPYPVPYGLYDYWGQGTQVTVSS | low polyreactivity
11 | QVQLVESGGGLVQAGGSLPLSCAASASIFSYYDMGWYRQAPGKERELVAAISWSGGSTYYADSVKGRFTISRDNAKNTVYLQMNSLKPEDTAVYYCAAGTYPYYWGQGTQVTVSS | low polyreactivity
12 | QVQLVESGGGLVQAGGSLRLSCAASGSTFGRNAMGWYRQAPGKERELVAAISWRSTRTYYADSVKGRFTISRDNAKNTVYLQMNSLKPEDTAVYYCAAAWRIWWYHRGEFDYWGQGTQVTVSS | high polyreactivity
13 | QVQLVESGGGLVQAGGSLRLSCAASGRIFKCYAMGWYRQAPGKERELVAAISSGGRTYYADSVKGRFTISRDNAKNTVYLQMNSLKPEDTAVYYCAALQRTGPYAGSSGYWGQGSQVTVSS | high polyreactivity
14 | QVQLVESGGGLVQAGGSLRLSCAASGFTIVWYAMGWYRQATGKERELVAAISSGVSTYYADSVKGRFTISRDNAKNTVYLQMNSLKPEDTAVYYCAADREYYDEYAGYEYWGQGTQVTVSS | low polyreactivity
15 | QVQLVESGGGLVQAGGSLRLSCAASGRIFRYNAMGWYRQAPGKERELVAALTSGGSTNYADSVKGRFTISRDNAKNTVYLQMNSLKPEDTAVYYCAVTGYRPYAYRRRYPYDYWGQGTQVTVSS | high polyreactivity
16 | QVQLVESGGGLFQAGGSLRLSCAASGRIFGYNSMGWDRQAPGKERELVAAIRRRGGTTYYADSVKGRFTISRDNAKNTVYLQMNSLKPEDNAVYYCAADLTFSYRQSAGRYSTYGYWGQGTQVTVSS | high polyreactivity
17 | QVQLVESGGGLVQAGGSLRLSCAASGFTFNRYAMAWDRQAPGKERELVATITSGGNTYYADSVKGRFTIARDNAKNTVYLQMNSLKPEDTAVYYCNQLGWYSVYRRDYWGQGTQVTVSS | high polyreactivity
18 | QVQLVESGGGLVQAGVSLRLSCVASGLTQPYAMGWYRQAPGKESELVAGISWRGASTYYADSVKGRFTISRDNAKNTVYLQMNSLKPEDTAVSYCAARSTIQRRGYYGYRVGRSEYGYWGQGTQVTVSS | low polyreactivity
19 | QVQLVESGGGLVQAGGSLRLSCAASGRTFYYYAMGWYRQAPGKEREFVASITWRGGRTYYADSVKGRFTISRDNAKNTVYLQMNSLKPEDTAVYYCAADGSYAIGGYGYWGQGTQVTVSS | high polyreactivity
20 | QVQLVESGGGLVQAGGSLRLSCAASGFIFRRYAMGWYRQAPGKERELVAAITWNGGTTYYADSVKGRFTISRDYAKNTVYLQMNRLKPEDTAVYYCAAASRHTGSYRFYYWGQGTQVTVSS | high polyreactivity
21 | QVQLVESGGGLVQAGCSRRLSWAASGSTFPDYVMGWDRQAPGKERELVAAISSIGGSTYYADSVKGRFTISRDNAKNTVYLQMNSLKPEDSAVYYCAAENSYFYPFDYWGQGTQVTVSS | low polyreactivity
22 | QVQLLESGGGLVQSGGSLRVSCAASGSTFYAYSMGWYRQAPGKERELVAALDSGGSTYADSVKGRFPISRANAKHTVYLQMNSLKPEETAVYYCAADLITRSDYWWTGWIWEYDYWGQGTQVTVSS | low polyreactivity

Row | Sequence | polyreactivity (PSR sort gate)
23 | QVQLVESGGGLVQAGGSLRLSCAASGYIFGNYAMGWYRQAPGKERELVADITWRGDSTYADSVKGRFTISRDNAKKTVYLQMNSLKPEDTAVYYCAADIATEYWYTGYDHWGQGTQVTVSS | low polyreactivity
24 | QVQLVESGGGLVQAGGSLRLSCAASGRILYSYTMGWYRPAPGKEREFVAAITRSGGGTYYADSVKGRFTISRDNAKNTVYLQMNSLKPEDTAVYYCAATRNPYRRSNYDYWGQGTQVTVSS | high polyreactivity
25 | QVHLVESGGGLVQAGGSLRLSGAASGRIFFSNAMGWYRQAPGKEWELVAAISTSGGSTYYADSVKGRFTISRENAKNTVYLQMNSLKPEDTAVYYCNAVYYTSYSGYHFVYEYDYWGQGTQVTVSS | low polyreactivity
26 | QVQLVESGGGIFQAGGSLRLSCSASGNTLVIYAMGWYRQAPVKESELVAAISRAGGTTYYADSVKGRFTISRDKAKNTVYLQMNSLKPEDTEVFYCNAGDHMRKRYGISATWGYGYGYWGQGSQVTVSS | high polyreactivity
27 | QVQLVESGGGLVQAGGSLRLSCAASGIIFYFYARGWYRQAPGKETELVAANSRGGSTKYADSVKGRFTISRDNAKNTVYLLMYSLKPEDTAFYYCNARVRGVRQGIMDYWGQGTQVSVSS | high polyreactivity
28 | QVQLVESGGGLVQAGGSLRLSCAASGSTFQGYAMGWYRQAPGKEREFVAAISRSGGRTYYADSVKGRFTISRDNAKNTVYLQMNSLKPEDTAVYYCAALPYWEYGYWGQGTQVTVSS | high polyreactivity
29 | QVQLVESGGGLVQAGGTLRLSCAASGFTFFSNAMGWYRQPPGKERELVAAIPTNGGSTYYADSVKGRFTISRDNAMNTVYLQMNSLKPEDTALYYCAAEYTVGGPYSYDFWGQGTQVTVSS | low polyreactivity
30 | QVQLVDSGGGLVQAGGSLRLSCAASGSTFTYYAMGWYRPAPGKERELVASITTSGGDTNYADSVKGRFTISRDNAKKTVYLQRNSQKPEDTPLYYCNTTTDQHYGYCAAADADRKYDYWGQGTQVTVSS | low polyreactivity
31 | QVQLVESGGALDQAGGSLRLSCAASGSTFVVNAMGWYIQAPGKERELVAGITTSGGSTYYADSVKGRFTISRDNAKTTVYLQMNSLKPEDTAVYYCAARRWPYVYRFRAYSGFDYWGQGTHVTVSS | low polyreactivity
32 | QVQLVESGGGLVQAGGSLRLSCAASGSILSRYAMGWYRQAPGKERELVAAISSRGGSTYYADSVKGRFTISRDNAKNTVYLQMNSLKPEDTAVYYCAADPVGEVRVYARGYSWGQGTQVTVSS | high polyreactivity
33 | QVQLVESRGGLVQAGGSLRLTCAASGSTFTHYAMGWYRQAPGKERELVAAISSGGGSTYYADSVKGRFTISRDNAKNTVYVQMNSLKPEDTAVYYCAVRSQFRAWRFYYWGQGTQVNVSS | high polyreactivity
34 | QVQHVESGGGLVQAGGSLRLSCAASGLIFRYYVKGWYRPAPGKERDLDAGITSSGGYTFYAESVKGRFTISRDNAKNTVYLQMNSLKPDDTAVYYCAARRPYAYARSSRYDYWGQGTQVSVSS | high polyreactivity
35 | QDQLVESGGGLVQAGGSLRLSCAASGNIFVTNAMGWYRQAPGKERELVAAITYSGGTTYYADSVKGRFTISRDNAKNTVYLQMNSLKPEDTAVYYCAADFATWTYYPYRLDEFDYWGQGTQVTVSS | low polyreactivity
36 | QVQLVESGGGLVQAGGSLRLSCAASGSIFYYYSMGWYRQAPGKERELVARITSGGSTKYADSVKGRFTISRDNAKYTVYLQMNSLKPEDTAVYYCAARYQYNYWGTYGSWGQGTQVTVSS | high polyreactivity
37 | QVQLVESGGGLVQAGGSLRLSCAASGFTFTRNTMGWYRQAPGKERELVAAITRGGSTNYADSVKGRFTITRDNAKNTVYLQMNSLKPEDTAVYYCAADAPFDRPYNYWGQGTQVTVSS | low polyreactivity
38 | QVQLVESGGGLVQAGGSLRLSCAASGRIFLSNAMGRYRQAPRKDRELVAAISWTGGSTYYADSVKGRFTISRDNAKNTVYLQMNSLKPEDTAVYYCAASTVGQTYSYYVDTYDYWGQGTQVTVSS | low polyreactivity
39 | QVQIVESGGGLVQAGGILRLSCASSRSIFTVNTMGWYRQEHGKETELVAAINSRGGTTYYADSVKGRFTISRDNAKNTVYLQMISLKPEDTAFYYCAARTRIGLLYDYWGQGTQVTVSS | high polyreactivity
40 | PVQLVESGGGLVQAGGSLRLSCAASGITFYRYMGWYRQAPGKERELVASITGRGGSTYYADSVKGRFTISRDNAKNTVYLQMNSLKPEDTAVYYCAAVFPTKSSTWYDFWGEGTQVTVSS | high polyreactivity
41 | QVQLVESGGGLVQAGGSLRLSCAASGSTLVDYAMGWYRQAPGKERELVATISFRGGSTYYADSVKGRCTISRDNAKNTVYLQMNSLKPEDTAVYYCAAEYGPSLYYYYGHAAYAYGYWGQGTQVTVSS | low polyreactivity
42 | QFQLVESGGGLVQAGGSLRLSCAASGLIFRIYAMGWYRQAPGKEREFVAAIRWRGGSTYYADSVKGRFTISRDNAKYTVYLQMNSLKPEDTAVYYCAVRSCPYRPRLDYWGQGTQVTVSS | high polyreactivity
43 | QVQLVESGGGLFQAGGSLRLSCAASGRTFTWYAMGWYRQAPGKERELVAAISFSGGSTYYADSVKGRFTISRDNAKNTVYLQMNSLKPEDTAVYYCARPSGDAWEGPRMDYWGQGTQVTVSS | low polyreactivity
